# Results reported in the supplement of paper PMC9170038.
# Test system: MS2 coat protein
# Experiment: apparent KD of MS2 coat protein; designed switch direction (-1 OFF switch, 1 ON switch): -1; higher = weaker reporter binding
# In short: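 Designed RNA switches were transcribed on Illumina chips by stalled E. coli RNA polymerase and titrated with SNAP-549-labelled MS2 coat protein from 0.7 or 1.5 nM, doubling to 3 µM. Step length ran from 0.8–1.5 h at the lowest concentration to 10–20 min at the highest. The apparent KD is the median over clusters for each design, from curve-fitted normalised cluster fluorescence.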
# [1] = input ligand: microRNA oligo, concentration not stated
# [2] = Eterna round: R95, input ligand: microRNA oligo, concentration not stated
# [3] = Eterna round: R95, input ligand: FMN 200 uM
# [4] = Eterna round: R95, input ligand: none
sequence,measurement,setting,value
"AAUUUACAUGAGGAUCACCCAUGUGAGGAUAUAUAUAUAUAUUUGUUAUUGUGUGUGUGUAGAAGGCGCGUGAU [JR_Exc1_Sub034] (Eterna round: R97, puzzle: Exclusion 1)",apparent KD of MS2 coat protein,input ligand: FMN 200 uM,33.3 nM
same,apparent KD of MS2 coat protein,input ligand: none,42.2 nM
"ACGCGACAUGAGGAUCACCCAUGUGAGGAUAUGGCCUGUUUGGCGUGUGCUGGCUCUGUCAGAAGGCGCGUGGG [salish99_ex1_r4_040] (Eterna round: R97, puzzle: Exclusion 1)",apparent KD of MS2 coat protein,input ligand: FMN 200 uM,141 nM
same,apparent KD of MS2 coat protein,input ligand: none,90.4 nM
"UUUCCCUGGCAAGGAUAUCCUGUGCGGUUCCGGCUCGUGUCUGUUACAUGAGGAUCACCCAUGUGGGAGAAGGUGCCUGUGGUU [Design 90] (Eterna round: R96, puzzle: Exclusion NG 2)",apparent KD of MS2 coat protein,input ligand: FMN 200 uM,390 nM
same,apparent KD of MS2 coat protein,[1],173 nM
same,apparent KD of MS2 coat protein,input ligand: none,220 nM
"AGUUGGCGAGGAUAUACAUGAGGAUCACCCAUGUGAAAUUAAAGUGAGGAAAUGAAAAGUAGAAGGCGCUGACA [Mod of Mat - Jieux - Exclusion 3] (Eterna round: R97, puzzle: Exclusion 3)",apparent KD of MS2 coat protein,input ligand: FMN 200 uM,686 nM
same,apparent KD of MS2 coat protein,input ligand: none,67.7 nM
"ACACAACAUGAGGAUCACCCAUGUCAGGAUAUGCAGAACAAGAACAAGACAAGACAGAGCAGAAGGGACAACAC [Ex 1 M5] (Eterna round: R96, puzzle: Exclusion 1)",apparent KD of MS2 coat protein,input ligand: FMN 200 uM,49 nM
same,apparent KD of MS2 coat protein,[1],29.6 nM
same,apparent KD of MS2 coat protein,input ligand: none,36.3 nM
"AUGGGUCCUCACGGAGCUACAUGAGGAUCACCCAUGUGUAUUGAGGAUAUCCACUGCCGACGGCUGGAGAAGGCAGUGUACUGU [Ex NG3 #93] (Eterna round: R96, puzzle: Exclusion NG 3)",apparent KD of MS2 coat protein,input ligand: FMN 200 uM,97.8 nM
same,apparent KD of MS2 coat protein,[1],61.5 nM
same,apparent KD of MS2 coat protein,input ligand: none,109 nM
GCAUGGAAAGUGAGGAUAUACCACUGGAUACAGUGGUAGAAGGCACAUGAGGAUCACCCAUGUUUCUACCAUGC [Fiskers BMX 4 - 40] (puzzle: Brourd's mod of Exclusion 4),apparent KD of MS2 coat protein,[2],12.7 nM
"UGUAGAGUGGUAGGAUAUCCGUCUGUUUCAGUCGGAGAAGGACCACAGUCACUGGGUCCUUAUAUGGGUGACCAUGUAUCUACU [pwkr exNG1 F6.5] (Eterna round: R96, puzzle: Exclusion NG 1)",apparent KD of MS2 coat protein,input ligand: FMN 200 uM,652 nM
same,apparent KD of MS2 coat protein,[1],303 nM
same,apparent KD of MS2 coat protein,input ligand: none,369 nM
"UGUCAGAUGGUAGGAUAUCCAUAUCGAGUGACUCUUUCAUAACAUGAGGAUCACCCAUGUCGGUGGGAGAAGGGCCGUAUGGUG [salish99_ExNG02_R04_027] (Eterna round: R96, puzzle: Exclusion NG 2)",apparent KD of MS2 coat protein,input ligand: FMN 200 uM,22.9 nM
same,apparent KD of MS2 coat protein,[1],14.5 nM
same,apparent KD of MS2 coat protein,input ligand: none,25.2 nM
"GUAGAUCAGGCUUUCAUUGACAUGAGGAUCACCCAUGUUUUGAAAGGGUGAGAGAGGUGCUUCAUAUUCAGCUCUGA [JR_Sensorv2_tov_Sub1218] (Eterna round: R96, puzzle: Sensor v2, turn-off variant)",apparent KD of MS2 coat protein,input ligand: FMN 200 uM,76.4 nM
same,apparent KD of MS2 coat protein,[1],55.3 nM
same,apparent KD of MS2 coat protein,input ligand: none,61.1 nM
"GUAAAACAUGAGGAUCACCCAUGUCAGGAUAUACGAAUCCACCCUAACUGCGUGGAUCGUAGAAGGGACAUAGG [Exclusion 1 (MOD5.1 Esqu)] (Eterna round: R97, puzzle: Exclusion 1)",apparent KD of MS2 coat protein,input ligand: FMN 200 uM,17.9 nM
same,apparent KD of MS2 coat protein,input ligand: none,44.7 nM
"UGUACUAUGCGAGCUGACUUGCGUAGUGCAGCAGGUGUAACAUGAGGAUCACCCAUGUCCUCAUUUGCUCGUCUUAU [SL-sv3-2.05 JL mod] (puzzle: Sensor v3, turn-off variant 2)",apparent KD of MS2 coat protein,[3],347 nM
same,apparent KD of MS2 coat protein,[2],297 nM
same,apparent KD of MS2 coat protein,[4],414 nM
"CGAUGCACGAAUCCACAUGAGGAUCACCCAUGUCGUGUUAGCGAGGAUAUCGGAGACACAUAGUAUGAGAAGGCGCGAACCUGA [Ex NG3 #22] (Eterna round: R96, puzzle: Exclusion NG 3)",apparent KD of MS2 coat protein,input ligand: FMN 200 uM,13.1 nM
same,apparent KD of MS2 coat protein,[1],11.9 nM
same,apparent KD of MS2 coat protein,input ligand: none,13.1 nM
"UCCGUACAUGAGGAUCACCCAUGUCAGGAUAUGCAGACCGGCCGCCAGCGACCGGCCCGCAGAAGGGACAUAGA [EX1 B.4] (Eterna round: R97, puzzle: Exclusion 1)",apparent KD of MS2 coat protein,input ligand: FMN 200 uM,140 nM
same,apparent KD of MS2 coat protein,input ligand: none,30.7 nM
UUUUAACAUGAGGAUCACCCAUGUCAGGAUAUGCUAUUUUUUUUUUUUUUUUUUUUUUGCAGAAGGGACAUUUU [My solution] (puzzle: Exclusion 1),apparent KD of MS2 coat protein,[3],78.5 nM
same,apparent KD of MS2 coat protein,[2],29.4 nM
same,apparent KD of MS2 coat protein,[4],55.7 nM
"CCGACCCUAGGAUAUUGUACUGCUGACAUGAGGAUCACCCAUGUAUGUUAACUCGGCCGACGAGAAGGAGGCGAAA [BotMod 5 - Jieux - Exclusion 5] (Eterna round: R97, puzzle: Exclusion 5)",apparent KD of MS2 coat protein,input ligand: FMN 200 uM,21.7 nM
same,apparent KD of MS2 coat protein,input ligand: none,20.3 nM
CAUACUCAAGUCAGGAUAUAGAGUCGGAUACGGGUCUAGAAGGGACAUGAGGAUCACCCAUGUAGAGAGUAAAG [EX-4 Malc #24] (puzzle: Brourd's mod of Exclusion 4),apparent KD of MS2 coat protein,[3],62.7 nM
same,apparent KD of MS2 coat protein,[2],30.9 nM
same,apparent KD of MS2 coat protein,[4],30.8 nM
"AUUAUAUAGACAGGAUAUUGAUUAUUAUUUUAACAUGAGGAUCACCCAUGUAGCCUUAUGUAUAACAAGAAGGGUCAUUUAUUA [Title] (Eterna round: R96, puzzle: Exclusion NG 2)",apparent KD of MS2 coat protein,[1],124 nM
"UGCUACGGAGGAUAUACAUGAGGAUCACCCAUGUGUGAGAUUUGGCCGAGAGGCCAAUGUAGAAGGCCGUAGCU [jl-ex3-4.20 jl mod] (Eterna round: R97, puzzle: Exclusion 3)",apparent KD of MS2 coat protein,input ligand: FMN 200 uM,371 nM
same,apparent KD of MS2 coat protein,input ligand: none,35.9 nM
AAUAAACAUGAGGAUCACCCAUGUGAGGAUAUGCAAAUAAAUAAUAAAAUAAAUAAAAGCAGAAGGCACAAUAA [JMF most obvious solution 1] (puzzle: Exclusion 1),apparent KD of MS2 coat protein,[3],31.5 nM
same,apparent KD of MS2 coat protein,[2],35 nM
same,apparent KD of MS2 coat protein,[4],30.9 nM
"UUUAUAUAGUAAGGAUAUGUAUUAAUUUUAUAGACAGAAGGUACUGACAUGAGGAUCACCCAUGUUUUAGUGUGGGCAUGUAGU [JMF's solution 94] (Eterna round: R96, puzzle: Exclusion NG 1)",apparent KD of MS2 coat protein,[1],299 nM
CCGUCACAUGAGGAUCACCCAUGUCAGGAUAUCUAUCAUAGCAUCGAAAGAUGCGGGUAGAGAAGGGACUAUCC [ChP Ext 10-04-2015 #7] (puzzle: Exclusion 1),apparent KD of MS2 coat protein,[2],20.3 nM
"AAUUAUUGAUGAGGAUAUUGUGGUGAAACACGACGAGAAGGCAUAUGUCACAUGAGGAUCACCCAUGUGAGCCUUGUGGAUAUA [Ex NG1 #65] (Eterna round: R96, puzzle: Exclusion NG 1)",apparent KD of MS2 coat protein,[1],43.5 nM
ACCUCACAUGAGGAUCACCCAUGUCAGGAUAUUCAAACAGGCGGAACUCCGCCUUCUCGAAGAAGGGACAUUAA [Ontebileza] (puzzle: Exclusion 1),apparent KD of MS2 coat protein,[2],16.6 nM
"CCAAGUUCAUAGGAUAUCAGACGGAUAAAGGUAUGAGAAGGAUGAACAUGAGGAUCACCCAUGUGCACUCCCGA [EX6 B.19] (Eterna round: R97, puzzle: Exclusion 6)",apparent KD of MS2 coat protein,input ligand: FMN 200 uM,34.1 nM
same,apparent KD of MS2 coat protein,input ligand: none,14.2 nM
"GCAAGCUUAGGAUAUACAUGAGGAUCACCCAUGUCGUGAAUUUCGAUGCUUAAUGGCGGUAGAAGGAGGCUUGA [Eternabot (L2) Solution 12] (Eterna round: R97, puzzle: Exclusion 3)",apparent KD of MS2 coat protein,input ligand: FMN 200 uM,31.2 nM
same,apparent KD of MS2 coat protein,input ligand: none,18.8 nM
